One assay has as its target T1, mouse FcγRIII (mouse, UniProt P08508 31-215).
T1 construct: also called mFcγRIII; mFcgRIII
T1 chain: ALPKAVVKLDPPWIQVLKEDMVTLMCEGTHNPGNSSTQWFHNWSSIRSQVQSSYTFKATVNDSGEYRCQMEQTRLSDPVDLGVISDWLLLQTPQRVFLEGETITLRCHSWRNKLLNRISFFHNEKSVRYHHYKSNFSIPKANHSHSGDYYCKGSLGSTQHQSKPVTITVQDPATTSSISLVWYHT
Kind of assay: SPR Biacore 4000, KD ratio. As to the method:
(§1) Each altered antibody was analyzed for its interaction with each Fcγ receptor prepared above using Biacore T100 (GE Healthcare Japan Corp.), Biacore T200 (GE Healthcare Japan Corp.), Biacore A100, or Biacore 4000. The running buffer used was HBS-EP+ (GE Healthcare Japan Corp.). The assay temperature was set to 25° C. The sensor chips used were chips prepared by immobilizing Protein L (ACTIGEN or BioVision) onto Series S Sensor Chip CM5 (GE Healthcare Japan Corp.) or Series S Sensor Chip CM4 (GE Healthcare Japan Corp.) by the amine coupling method.
(§2) In order to calculate the KD value of each altered antibody for FcγR, kinetic analysis was conducted according to the following method: first, the antibody of interest was captured onto any of these chips and allowed to interact with mFcγR diluted with a running buffer. For the obtained sensorgram, the assay results were globally fit into the 1:1 Langmuir binding model using Biacore Evaluation Software to calculate an association rate constant ka (L/mol/s) and a dissociation rate constant kd (1/s). From these values, the dissociation constant KD (mol/L) was calculated.
On the technique in general: Surface plasmon resonance follows binding to a sensor surface in real time, without labels.

The target of another assay is T2, mouse FcγRII (mouse, UniProt P08101 30-210).
T2 construct: also called mFcγRII; mFcgRII
T2 sequence: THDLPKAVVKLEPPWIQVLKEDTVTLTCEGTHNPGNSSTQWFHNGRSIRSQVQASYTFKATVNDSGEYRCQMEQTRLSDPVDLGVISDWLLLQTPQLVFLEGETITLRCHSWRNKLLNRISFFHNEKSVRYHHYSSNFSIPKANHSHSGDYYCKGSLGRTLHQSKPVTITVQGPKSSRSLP
The experiment in a line: SPR Biacore 4000, KD ratio. As to the method:
as §1, §2

Where a chain is given by its changes, count along the chain named.

B1: MB020 (antibody, mouse IgG1, kappa)
heavy: QVQLQESGPGLVKPSETLSLTCAVSGHSISHDHAWSWVRQPPGEGLEWIGFISYSGITNYNPSLQGRVTISRDNSKNTLYLQMNSLRAEDTAVYYCARSLARTTAMDYWGEGTLVTVSSAKTTPPSVYPLAPGSAAQTNSMVTLGCLVKGYFPEPVTVTWNSGSLSSGVHTFPAVLQSDLYTLSSSVTVPSSTWPSETVTCNVAHPASSTKVDKKIVPRDCGCKPCICTDPEVSSVFIFPPKPKDVLTITLTPKVTCVVVDISKDDPEVQFSWFVDDVEVHTAQTQPREEQFNSTFRSVSELPIMHQDWLNGKEFKCRVNSAAFPAPIEKTISKTKGRPKAPQVYTIPPPKEQMAKDKVSLTCMITDFFPEDITVEWQWNGQPAENYKNTQPIMDTDGSYFVYSKLNVQKSNWEAGNTFTCSVLHEGLHNHHTEKSLSHSPGK
light: not shown
notes: copies: 2 + 2
Regarding B1, the “relative mFcγRIII-binding activity (mIgG1 = 1)” value with mouse FcγRIII worked out at 2.84 fold. The “relative mFcγRII-binding activity (mIgG1 = 1)” value in the assay with mouse FcγRII is 7.97 fold.

B2: MB053 (antibody, mouse IgG1, kappa)
heavy: B1 heavy with D230V, P231W
light: not shown
notes: copies: 2 + 2
In the case of B2, in the assay with mouse FcγRIII, the “relative mFcγRIII-binding activity (mIgG1 = 1)” value amounted to 1.02 fold. For the same molecule, the “relative mFcγRII-binding activity (mIgG1 = 1)” value with mouse FcγRII was determined as 1.36 fold.

B3: MB025 (antibody, mouse IgG1, kappa)
heavy: B1 heavy with D230I
light: not shown
notes: copies: 2 + 2
As for B3, the “relative mFcγRIII-binding activity (mIgG1 = 1)” value with mouse FcγRIII came out at 1.06 fold. Also, the “relative mFcγRII-binding activity (mIgG1 = 1)” value in the assay with mouse FcγRII is 1.19 fold.

B4: MB121 (antibody, mouse IgG1, kappa)
heavy: B1 heavy with D230V, S235Q
light: not shown
notes: copies: 2 + 2
As to B4, the “relative mFcγRIII-binding activity (mIgG1 = 1)” value with mouse FcγRIII was determined as 0.94 fold. Moreover, the “relative mFcγRII-binding activity (mIgG1 = 1)” value with mouse FcγRII was 1.48 fold.

B5: MB027 (antibody, mouse IgG1, kappa)
heavy: B1 heavy with D230L
light: not shown
notes: copies: 2 + 2
For the molecule B5, in the assay with mouse FcγRIII, the “relative mFcγRIII-binding activity (mIgG1 = 1)” value was 1.55 fold. Further, the “relative mFcγRII-binding activity (mIgG1 = 1)” value in the assay with mouse FcγRII was found to be 1.88 fold.

B6: MB045 (antibody, mouse IgG1, kappa)
heavy: B1 heavy with D230V, P231L
light: not shown
notes: copies: 2 + 2
As for B6, the “relative mFcγRIII-binding activity (mIgG1 = 1)” value with mouse FcγRIII was 0.9 fold. Further, the “relative mFcγRII-binding activity (mIgG1 = 1)” value in the assay with mouse FcγRII stood at 1.2 fold.

B7: MB034 (antibody, mouse IgG1, kappa)
heavy: B1 heavy with D230T
light: not shown
notes: copies: 2 + 2
As to B7, the “relative mFcγRIII-binding activity (mIgG1 = 1)” value with mouse FcγRIII stood at 1.12 fold. The “relative mFcγRII-binding activity (mIgG1 = 1)” value with mouse FcγRII amounted to 1.25 fold.

B8: MB126 (antibody, mouse IgG1, kappa)
heavy: B1 heavy with D230V, S235Y
light: not shown
notes: copies: 2 + 2
Take B8: the “relative mFcγRIII-binding activity (mIgG1 = 1)” value with mouse FcγRIII is 0.94 fold. The “relative mFcγRII-binding activity (mIgG1 = 1)” value with mouse FcγRII stood at 1.58 fold.

B9: MB038 (antibody, mouse IgG1, kappa)
heavy: B1 heavy with D230V, P231D
light: not shown
notes: copies: 2 + 2
With B9, in the assay with mouse FcγRIII, the “relative mFcγRIII-binding activity (mIgG1 = 1)” value stood at 1.37 fold. In the assay with mouse FcγRII, the “relative mFcγRII-binding activity (mIgG1 = 1)” value was found to be 3.15 fold.

B10: MB102 (antibody, mouse IgG1, kappa)
heavy: B1 heavy with D230V, S234P
light: not shown
notes: copies: 2 + 2
Take B10: the “relative mFcγRIII-binding activity (mIgG1 = 1)” value with mouse FcγRIII came to 2.37 fold. Besides, in the assay with mouse FcγRII, the “relative mFcγRII-binding activity (mIgG1 = 1)” value is 2.62 fold.

B11: MB143 (antibody, mouse IgG1, kappa)
heavy: B1 heavy with D230V, V236W
light: not shown
notes: copies: 2 + 2
B11: the “relative mFcγRIII-binding activity (mIgG1 = 1)” value with mouse FcγRIII was 6.32 fold. In addition, the “relative mFcγRII-binding activity (mIgG1 = 1)” value with mouse FcγRII was 7.42 fold.

B12: MB039 (antibody, mouse IgG1, kappa)
heavy: B1 heavy with D230V, P231E
light: not shown
notes: copies: 2 + 2
Consider B12, for which the “relative mFcγRIII-binding activity (mIgG1 = 1)” value with mouse FcγRIII amounted to 1.29 fold. Further, the “relative mFcγRII-binding activity (mIgG1 = 1)” value in the assay with mouse FcγRII was found to be 3.27 fold.

B13: MB139 (antibody, mouse IgG1, kappa)
heavy: B1 heavy with D230V, V236Q
light: not shown
notes: copies: 2 + 2
As to B13, the “relative mFcγRIII-binding activity (mIgG1 = 1)” value with mouse FcγRIII was 1.2 fold. Also, in the assay with mouse FcγRII, the “relative mFcγRII-binding activity (mIgG1 = 1)” value came out at 1.54 fold.

B14: MB129 (antibody, mouse IgG1, kappa)
heavy: B1 heavy with D230V, V236E
light: not shown
notes: copies: 2 + 2
As for B14, the “relative mFcγRIII-binding activity (mIgG1 = 1)” value in the assay with mouse FcγRIII came out at 2.42 fold. In the assay with mouse FcγRII, the “relative mFcγRII-binding activity (mIgG1 = 1)” value was determined as 6.19 fold.

B15: MB030 (antibody, mouse IgG1, kappa)
heavy: B1 heavy with D230P
light: not shown
notes: copies: 2 + 2
For the molecule B15, the “relative mFcγRIII-binding activity (mIgG1 = 1)” value with mouse FcγRIII was determined as 2.27 fold. For the same molecule, the “relative mFcγRII-binding activity (mIgG1 = 1)” value with mouse FcγRII came to 5.26 fold.

B16: MB132 (antibody, mouse IgG1, kappa)
heavy: B1 heavy with D230V, V236H
light: not shown
notes: copies: 2 + 2
Take B16: in the assay with mouse FcγRIII, the “relative mFcγRIII-binding activity (mIgG1 = 1)” value came out at 1.39 fold. The “relative mFcγRII-binding activity (mIgG1 = 1)” value with mouse FcγRII turned out to be 2.12 fold.

B17: MB028 (antibody, mouse IgG1, kappa)
heavy: B1 heavy with D230M
light: not shown
notes: copies: 2 + 2
B17: the “relative mFcγRIII-binding activity (mIgG1 = 1)” value with mouse FcγRIII is 1.42 fold. Further, in the assay with mouse FcγRII, the “relative mFcγRII-binding activity (mIgG1 = 1)” value turned out to be 1.83 fold.

B18: MB031 (antibody, mouse IgG1, kappa)
heavy: B1 heavy with D230Q
light: not shown
notes: copies: 2 + 2
In the case of B18, the “relative mFcγRIII-binding activity (mIgG1 = 1)” value in the assay with mouse FcγRIII was found to be 1.48 fold. Also, in the assay with mouse FcγRII, the “relative mFcγRII-binding activity (mIgG1 = 1)” value was 1.99 fold.

B19: MB111 (antibody, mouse IgG1, kappa)
heavy: B1 heavy with D230V, S235E
light: not shown
notes: copies: 2 + 2
Take B19: the “relative mFcγRIII-binding activity (mIgG1 = 1)” value with mouse FcγRIII turned out to be 1.11 fold. The “relative mFcγRII-binding activity (mIgG1 = 1)” value in the assay with mouse FcγRII is 5.01 fold.

B20: MB118 (antibody, mouse IgG1, kappa)
heavy: B1 heavy with D230V, S235M
light: not shown
notes: copies: 2 + 2
With B20, the “relative mFcγRIII-binding activity (mIgG1 = 1)” value in the assay with mouse FcγRIII amounted to 0.99 fold. In addition, the “relative mFcγRII-binding activity (mIgG1 = 1)” value with mouse FcγRII was found to be 1.74 fold.

B21: MB040 (antibody, mouse IgG1, kappa)
heavy: B1 heavy with D230V, P231F
light: not shown
notes: copies: 2 + 2
Consider B21, for which, in the assay with mouse FcγRIII, the “relative mFcγRIII-binding activity (mIgG1 = 1)” value was 1.17 fold. Also, the “relative mFcγRII-binding activity (mIgG1 = 1)” value in the assay with mouse FcγRII came out at 1.47 fold.

B22: MB103 (antibody, mouse IgG1, kappa)
heavy: B1 heavy with D230V, S234Q
light: not shown
notes: copies: 2 + 2
On to B22, for which the “relative mFcγRIII-binding activity (mIgG1 = 1)” value with mouse FcγRIII stood at 1.05 fold. The “relative mFcγRII-binding activity (mIgG1 = 1)” value in the assay with mouse FcγRII was found to be 1.27 fold.

B23: MB093 (antibody, mouse IgG1, kappa)
heavy: B1 heavy with D230V, S234E
light: not shown
notes: copies: 2 + 2
For the molecule B23, in the assay with mouse FcγRIII, the “relative mFcγRIII-binding activity (mIgG1 = 1)” value was determined as 0.56 fold. Besides, in the assay with mouse FcγRII, the “relative mFcγRII-binding activity (mIgG1 = 1)” value amounted to 2.09 fold.

B24: MB054 (antibody, mouse IgG1, kappa)
heavy: B1 heavy with D230V, P231Y
light: not shown
notes: copies: 2 + 2
Regarding B24, the “relative mFcγRIII-binding activity (mIgG1 = 1)” value with mouse FcγRIII stood at 1.11 fold. In addition, in the assay with mouse FcγRII, the “relative mFcγRII-binding activity (mIgG1 = 1)” value was determined as 1.75 fold.

B25: MB037 (antibody, mouse IgG1, kappa)
heavy: B1 heavy with D230V, P231A
light: not shown
notes: copies: 2 + 2
Consider B25, for which, in the assay with mouse FcγRIII, the “relative mFcγRIII-binding activity (mIgG1 = 1)” value was 1.22 fold. In addition, the “relative mFcγRII-binding activity (mIgG1 = 1)” value in the assay with mouse FcγRII is 1.54 fold.

B26: MB021 (antibody, mouse IgG1, kappa)
heavy: B1 heavy with D230E
light: not shown
notes: copies: 2 + 2
Turning to B26, the “relative mFcγRIII-binding activity (mIgG1 = 1)” value with mouse FcγRIII is 3.58 fold. Moreover, the “relative mFcγRII-binding activity (mIgG1 = 1)” value in the assay with mouse FcγRII turned out to be 8.52 fold.

B27: MB052 (antibody, mouse IgG1, kappa)
heavy: B1 heavy with D230V, P231V
light: not shown
notes: copies: 2 + 2
With B27, in the assay with mouse FcγRIII, the “relative mFcγRIII-binding activity (mIgG1 = 1)” value is 1.2 fold. Further, the “relative mFcγRII-binding activity (mIgG1 = 1)” value in the assay with mouse FcγRII amounted to 1.36 fold.

For the origin of these results see US20150203577A1 (Chugai, published 2015).
